In series [1] the target is Ralstonia solanacearum FabG1 (3-ketoacyl-ACP reductase, RSc1052), N-terminal hexahistidine-tagged (Ralstonia solanacearum GMI1000). Briefly: SEC.
For series [2], the target named is T1, RsFabG2 (Ralstonia pseudosolanacearum, UniProt Q8XSV8).
T1 construct: gene fabG2
The following applies: 50 μM NADPH, malonyl-ACP plus octanoyl-ACP or tetradecanoyl-ACP, 0.1 M sodium phosphate pH 7.0, 37 °C.

The target in series [3] is Ralstonia solanacearum FabG2 (3-ketoacyl-ACP reductase, RSp0359), N-terminal hexahistidine-tagged (Ralstonia solanacearum GMI1000). Nature of the series: SEC. A general note: Size exclusion chromatography separates by hydrodynamic size, large species first.
Substrate in series [4]: CC(=O)CC(=O)SCCNC(=O)CCNC(=O)[C@H](O)C(C)(C)COP(=O)(O)OP(=O)(O)OC[C@H]1O[C@@H](n2cnc3c(N)ncnc32)[C@H](O)[C@@H]1OP(=O)(O)O
Nature of the series: purified protein. The following applies: 200 μM NADPH, 0.1 M sodium phosphate pH 7, 0.1 M LiCl.

Substrate in series [5]: NC(=O)C1=CN([C@@H]2O[C@H](COP(=O)(O)OP(=O)(O)OC[C@H]3O[C@@H](n4cnc5c(N)ncnc54)[C@H](OP(=O)(O)O)[C@@H]3O)[C@@H](O)[C@H]2O)C=CC1
Briefly: purified protein. The following applies: 200 μM acetoacetyl-CoA, 0.1 M sodium phosphate pH 7, 0.1 M LiCl, varied: cofactor.

By stoichiometry N is commonly meant a count of units in the complex or per binding partner. By Km is commonly meant the concentration of substrate that gives half-maximal velocity. As usually defined, the Vmax is the top rate of the reaction or transport when substrate is in excess. Usually kcat stands for the number of substrate molecules converted per active site and unit of time at saturation.

“Ralstonia solanacearum FabG1 (3-ketoacyl-ACP reductase, RSc1052), N-terminal hexahistidine-tagged (enzyme)” yielded a stoichiometry N in series [1] of 4.
For `NC(=O)C1=CN([C@@H]2O[C@H](COP(=O)(O)OP(=O)(O)OC[C@H]3O[C@@H](n4cnc5c(N)ncnc54)[C@H](OP(=O)(O)O)[C@@H]3O)[C@@H](O)[C@H]2O)C=CC1` [NADPH], the “reconstituted 3-ketoacyl-ACP reduction with EcFabB and EcFabZ, urea gel” value in series [2] was “Upon the addition of NADPH, a 3-ketoacyl-ACP reductase (EcFabG, RsFabG1 or RsFabG2) and EcFabZ”.
“Ralstonia solanacearum FabG2 (3-ketoacyl-ACP reductase, RSp0359), N-terminal hexahistidine-tagged (enzyme)” gave a stoichiometry N in series [3] of 4.

B1: EcFabG (Escherichia coli K-12) (protein)
chain: MNFEGKIALVTGASRGIGRAIAETLAARGAKVIGTATSENGAQAISDYLGANGKGLMLNVTDPASIESVLEKIRAEFGEVDILVNNAGITRDNLLMRMKDEEWNDIIETNLSSVFRLSKAVMRAMMKKRHGRIITIGSVVGTMGNGGQANYAAAKAGLIGFSKSLAREVASRGITVNVVAPGFIETDMTRALSDDQRAGILAQVPAGRLGGAQEIANAVAFLASDEAAYITGETLHVNGGMYMV
For B1, in series [4], the Michaelis constant (Km) was found to be 4372.6 ± 105.1 µM, the Vmax came to 97 µmol/min/mg and the kcat was determined as 45.28 ± 4.3 s⁻¹. Besides, in series [5], the Km worked out at 5.41 ± 1.3 µM, the Vmax is 3.54 µmol/min/mg and the catalytic constant (kcat) was found to be 1.65 ± 0.43 s⁻¹.

For the origin of these results see publication PMC4618531 (BMC Microbiology, 2015).
